According to article PMC10895266, “The structure of the Caenorhabditis elegans TMC-2 complex suggests roles of lipid-mediated subunit contacts in mechanosensory transduction” (Proceedings of the National Academy of Sciences of the …, 2024):

Target: the molecule itself
Assay: cryo-EM structure; single-particle cryo-EM of the native TMC-2 complex isolated from worms (anti-FLAG affinity, SEC, GDN, 1 mM CaCl2); cis-dimeric particles selected

B1: TMC-2 (transmembrane channel-like protein 2), native, tagged with mVenus-3xFLAG at the endogenous locus (natural protein, C. elegans, UniProt Q11069 1-1203, looked up)
chain: MPKSGAHQPLVRHDTDDGGETGQSVKSLADVSEEEIDSRMSRRSSVIADLLSLFRRSSSVLVRPHTRLGNPNFDDDDDEFDEEDDKEASKDRILKKIQQKKEIIQKLRGQPWYMKRKRRTLKVAQKHLQQQEAKVSKARLYKAEAGRRLTQASRWLDNLKIYLIPWEAKIRKIESHFGSVVSSYFTFHRWVLGVNITITFIMCMFVVIPEWLADSRTQFGDDRYNKTKAIKVMPPAVRARADELSTVWDFGGYFQYSLLFYGFYSKETFFGETIKYRVPVAYFFCNIFILGFSLFIILRKMAANNRRGTLSSGKTQQYLFNWKAFTGWDYTIGNPETAGNVYMANVIKFREAINDDKQKPSDKHPWIRFVARVLTNLFICAMYVFSIWAIMQCGTLKGEHFFAQNATAITISLITLVFPNIFDLLGKIEKLHPRNALRFQLGRVLVLYILNYYTLIYSLMLQLEHLQKEKNASDNPISALGHPGDAIGRTIRETVLPRYPVDNNPHTYYSYAPVTTTPIPATSSWTTVLPDFGPFGVYNPKASVTKDDTVFSSPVVETHMFGPNSDWNETTVNAASPTGATTRASLRMSQGGLCWETIIGQEITKLVTMDLYMTVASIFLIDFLRGLACRYLNLYWPWDLERTFPEYGEFKVAENVLHLVNNQGMIWLGLFFVPLLPMLNNIKLIILMYIRGWAAMTCNVPASQIFRASRSSNFFFALLILFLFLCTLPVGFVIASKTPSKSCGPFGNQSFFYSVITDVLHENLDKTLVNGIKYSLSPGIIIPVLVLLSLVIYFLIAMVTGLSQANQDLSFQLMVERTEEKKKIFELAGGKKKKSKDNTFGKQKPKQLLPPPTKGVSSDDDSQHNRSTAKSVSGRQFVPSLGSVSEVDHSTGEEQSSDSESTTSSLPPKLSLRQRFLVCIGWADPNKYGRHDDIEMEEGGGRLRELSTGSETDSDDEDSEKSNRDMSYRTAIQSFDQNSQSASASSSKSTTTAPSNSEMRIEITENPLHTYITPLRIEKKSSASSSSSSHQPSSSIEKQAARRLLQPISTTHNIRYGVATVENSSQDPTRPPSTDDSLGDPALHEPLWANLNPHSSYTSAMMSPIMNEVMSNDETTDDEKGRLIPDRPPIPHSPRELKRLKREKDQQSESGSKPSTPRPPRFRISMSPPRKPPSEKNDSDSSNRKYEMRVEKSPKKPKKSDND
modifications: N-glycans at N225 and N748
notes: TMC-2, C. elegans, endogenous tmc-2 gene (Wormbase B0416.1a); tag inserted prior to the stop codon; residues M1 to D1203 named; modelled 89-471, 583-813; A 3C (PreScission) site lies between mVenus and 3xFLAG; The complex was captured on anti-FLAG resin by the 3xFLAG tag, which was cut off on elution with 3C protease before SEC, mass spectrometry and cryo-EM; also called TMC-2-mVenus; …
stoichiometry N: 2
